Assay results as given in paper PMC4004102.

Target: AgrC-I (wild type) dimer embedded in nanodiscs (Staphylococcus aureus)
Assay: fluorescence polarisation

Substance | Kd [nM]
AIP-I (native autoinducing peptide of agr group 1) | 63
AIP-II (native autoinducing peptide of agr group 2) | 160
